Experimental data taken from the RNAGym collection of RNA variant scans (doi:10.7554/elife.80360).

B1: CPEB3 Ribozyme (parent)
chain: GGGGGCCACAGCAGAAGCGUUCACGUCGCGGCCCCUGUCAGAUUCUGGUGAAUCUGCGAAUUCUGCUGU

Variants of: B1
Experiment: self-cleavage, relative activity (ratio to wild type); higher = more cleavage; co-transcriptional

First: A10G U38A
Second: A10G U38C
The self-cleavage of the first is lower: 0.784 for the first, 0.906 for the second.

Compared with A10G U38G, G11C A60C is higher in self-cleavage: 0.182 for the first, 0.299 for the second.

Going from G11U A40U to A10U C54A, the self-cleavage rises from 0.256 to 0.902.

First: A10U C54G
Second: A10U U46A
The self-cleavage of the first is higher: 0.958 for the first, 0.954 for the second.

Going from A10U U46C to A10U A51G, the self-cleavage falls from 0.983 to 0.955.

Compared with A10U A51U, A10G G58U is lower in self-cleavage: 1.04 for the first, 0.947 for the second.

Compared with G11A C63U, G11U C33U is higher in self-cleavage: 0.707 for the first, 0.948 for the second.

Compared with G11U G50A, C12A C63U is lower in self-cleavage: 0.896 for the first, 0.364 for the second.

Compared with C12A C63A, A10U A52U is higher in self-cleavage: 0.336 for the first, 1.02 for the second.

Going from G11U G47U to G11U G48U, the self-cleavage falls from 0.941 to 0.939.

First: G11U G48A
Second: G11A G31A
The self-cleavage of the first is higher: 0.917 for the first, 0.838 for the second.

Going from A10U C45G to G11U A15G, the self-cleavage falls from 0.949 to 0.779.

Going from G11U A15C to A10G U53C, the self-cleavage falls from 0.531 to 0.333.

Going from A10G U53A to A10U C22A, the self-cleavage falls from 0.651 to 0.208.

Compared with G11C A15G, A10U G25A is lower in self-cleavage: 0.627 for the first, 0.171 for the second.

Compared with G11U G65A, G11A G28A is lower in self-cleavage: 0.682 for the first, 0.16 for the second.

Compared with G11A G28C, G11A G28U is higher in self-cleavage: 0.157 for the first, 0.171 for the second.

Going from G11U C54A to G11U C54G, the self-cleavage rises from 0.361 to 0.412.

First: G11U C54U
Second: A10U G48C
The self-cleavage of the first is lower: 0.819 for the first, 1.03 for the second.

First: A10U G48A
Second: A10U C63U
The self-cleavage of the first is higher: 1.02 for the first, 0.969 for the second.

Going from G11A G14U to A10G U62C, the self-cleavage rises from 0.126 to 0.376.

Going from A10G A13G to A10G A13U, the self-cleavage falls from 0.233 to 0.13.

Going from G11C C66G to G11C C66U, the self-cleavage falls from 0.943 to 0.939.

First: G11U U38G
Second: G11U U38A
The self-cleavage of the first is lower: 0.178 for the first, 0.687 for the second.

Compared with A10U U55C, A10G A23C is higher in self-cleavage: 0.9 for the first, 0.939 for the second.

Going from G11C U20G to G11C C24G, the self-cleavage falls from 0.169 to 0.114.

Compared with G11C C57A, G11C A13C is lower in self-cleavage: 0.252 for the first, 0.175 for the second.

First: G11C A13G
Second: G11C A13U
The self-cleavage of the first is higher: 0.558 for the first, 0.209 for the second.

First: G11C C18G
Second: G11U G31A
The self-cleavage of the first is lower: 0.0784 for the first, 0.746 for the second.

First: A10U A13U
Second: A10U A13G
The self-cleavage of the first is higher: 0.701 for the first, 0.56 for the second.

Compared with A10G C18G, A10G C18U is higher in self-cleavage: 0.0572 for the first, 0.264 for the second.

Compared with A10G C18A, A10U G11A is higher in self-cleavage: 0.0954 for the first, 0.873 for the second.

Compared with A10U G11C, G11U A51C is lower in self-cleavage: 0.892 for the first, 0.669 for the second.

Going from G11U A60G to G11U A60U, the self-cleavage falls from 0.497 to 0.281.

First: G11U A60C
Second: G11A C57G
The self-cleavage of the first is lower: 0.234 for the first, 0.262 for the second.

Compared with A10U G56A, A10U G56U is lower in self-cleavage: 1.01 for the first, 0.984 for the second.

Going from G11A A51C to A10G U64G, the self-cleavage falls from 0.757 to 0.398.

First: G11C C35U
Second: G11C C35A
The self-cleavage of the first is higher: 0.758 for the first, 0.205 for the second.

First: A10G A52G
Second: A10G C22A
The self-cleavage of the first is higher: 1.01 for the first, 0.141 for the second.

Going from G11C C22G to G11C C33U, the self-cleavage rises from 0.18 to 0.827.

Compared with G11C C33A, A10U G41C is higher in self-cleavage: 0.547 for the first, 0.859 for the second.

First: G11A U43C
Second: G11A U43G
The self-cleavage of the first is higher: 0.658 for the first, 0.4 for the second.

Compared with G11A U43A, A10G U46A is higher in self-cleavage: 0.442 for the first, 0.91 for the second.

Going from A10G G28C to G11U U21C, the self-cleavage rises from 0.169 to 0.541.

First: G11U U21G
Second: G11C U64G
The self-cleavage of the first is lower: 0.196 for the first, 0.435 for the second.

Compared with G11A U26G, G11A U26C is higher in self-cleavage: 0.734 for the first, 0.863 for the second.

Compared with A10U U36C, A10U U36G is lower in self-cleavage: 0.924 for the first, 0.195 for the second.

Going from A10U G37C to A10G G14C, the self-cleavage falls from 0.3 to 0.0631.

Going from C12A C33U to A10C U67A, the self-cleavage rises from 0.671 to 1.02.

First: A10U A42C
Second: G11U U69C
The self-cleavage of the first is lower: 0.937 for the first, 1.05 for the second.

Going from G11C G48U to A10U C66A, the self-cleavage falls from 0.912 to 0.845.

Compared with A10U C66G, G11U C32A is lower in self-cleavage: 0.924 for the first, 0.773 for the second.

Compared with G11A C34A, G11A C34G is lower in self-cleavage: 0.715 for the first, 0.695 for the second.

Going from G11A C12U to A10U U67A, the self-cleavage rises from 0.549 to 0.997.

Going from A10U U67G to A10G U61A, the self-cleavage falls from 1.01 to 0.6.

Compared with A10G C66A, C12A is higher in self-cleavage: 0.385 for the first, 0.806 for the second.

Going from C12A C54U to A10G G30A, the self-cleavage rises from 0.688 to 0.96.

First: A10G G30U
Second: G11U U26G
The self-cleavage of the first is higher: 0.704 for the first, 0.635 for the second.

Compared with A10G U20A, G11C C63U is higher in self-cleavage: 0.0584 for the first, 0.416 for the second.

Going from G11A A15C to G11A G65C, the self-cleavage falls from 0.849 to 0.557.

Going from A10G G37U to A10G G37A, the self-cleavage rises from 0.11 to 0.219.

First: A10G C27U
Second: A10G G17C
The self-cleavage of the first is higher: 0.613 for the first, 0.106 for the second.

Compared with G11U U43C, G11A G25A is lower in self-cleavage: 0.768 for the first, 0.126 for the second.

First: C12A A13U
Second: G11C G37U
The self-cleavage of the first is lower: 0.15 for the first, 0.165 for the second.

Compared with A10U G30U, A10U C34U is higher in self-cleavage: 0.733 for the first, 0.985 for the second.

Compared with G11A A40G, G11A A40U is lower in self-cleavage: 0.726 for the first, 0.357 for the second.

First: G11C A42C
Second: C12A G31A
The self-cleavage of the first is lower: 0.151 for the first, 0.419 for the second.

First: C12A G31C
Second: C12A G31U
The self-cleavage of the first is lower: 0.219 for the first, 0.258 for the second.

Compared with G11U A42U, G11C G41C is lower in self-cleavage: 0.581 for the first, 0.257 for the second.

First: G11C G41U
Second: C12A G19U
The self-cleavage of the first is higher: 0.238 for the first, 0.111 for the second.

Going from C12A G19A to C12A A51C, the self-cleavage rises from 0.142 to 0.544.

Compared with C12A A51U, A10U G14U is higher in self-cleavage: 0.628 for the first, 0.654 for the second.

Compared with G11A G50A, G11C U53G is lower in self-cleavage: 0.852 for the first, 0.415 for the second.

First: C12A C35G
Second: G11C A16C
The self-cleavage of the first is lower: 0.189 for the first, 0.276 for the second.

Going from G11C A16U to C12A G37U, the self-cleavage falls from 0.49 to 0.18.

First: C12A G37C
Second: C12A G37A
The self-cleavage of the first is lower: 0.149 for the first, 0.187 for the second.

First: C12A G30C
Second: G11U C35A
The self-cleavage of the first is higher: 0.194 for the first, 0.16 for the second.

Compared with G11C G25U, C12A C18A is higher in self-cleavage: 0.0946 for the first, 0.139 for the second.

Compared with G11C G19U, G11C G19A is lower in self-cleavage: 0.158 for the first, 0.0742 for the second.

Going from G11A A59C to G11A A59G, the self-cleavage rises from 0.3 to 0.859.

First: A10G U44G
Second: G11A U55C
The self-cleavage of the first is higher: 0.71 for the first, 0.493 for the second.

First: A10U G50U
Second: A10G U26C
The self-cleavage of the first is higher: 0.978 for the first, 0.351 for the second.

First: A10G U26A
Second: A10G U26G
The self-cleavage of the first is higher: 0.933 for the first, 0.877 for the second.

G11C A59G showed a self-cleavage of 0.718.
